Assay results: US20080292639A1

Target: native amyloid plaques in unfixed brain sections of Tg2576 APP transgenic mice (human) (UniProt P05067)
Test: cell-based or functional assay

Chain of native amyloid plaques in unfixed brain sections of Tg2576 APP transgenic mice (human) (P05067 672-713 limits assumed): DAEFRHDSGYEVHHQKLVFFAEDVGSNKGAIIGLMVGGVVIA

EC50 of antibody induced phagocytosis of amyloid [µg/mL] | Substance
5 | mAb 6E10 (antibody)
0.8 | mAb 4G8 (commercially available anti-Aβ antibody)
